Laboratory results from patent US20230030529A1 (NORDIC BIOSCIENCE A S, published 2023).
Ends that are not written are not given here. * marks the point of attachment. Biotin = O=C1N[C@H]2[C@H](CS[C@H]2CCCCC(=O)*)N1

T1: Non-sense coating peptide LLARDFEKNY-K-biotin
T1 construct: also called non-sense biotinylated peptide
T1 peptide: LLARDFEKNYK(Biotin)

B1: C4-aa^1355 monoclonal antibody (antibody, V domains shown)
VH: QVTLKESGPGILQPSQTLSLTCSFSGFSLTTYNIGVGWIRQSSGKGLEWLAHIWYNDIKYYNTALKSRLTISKDTSNNQVFLKIASVVTADTATYYCARLRPDSFDYWGQGTTLTVSS
VL: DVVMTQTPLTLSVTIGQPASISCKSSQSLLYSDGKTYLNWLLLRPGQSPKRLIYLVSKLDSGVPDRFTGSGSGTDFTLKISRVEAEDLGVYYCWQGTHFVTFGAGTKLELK
notes: It was SULFO-TAG labelled in the ECLIA; also called the monoclonal antibody
B2: Selection peptide MGNTGPTGAV (peptide)
peptide: MGNTGPTGAV
notes: also called target peptide

Legend:
[1] = target: T2, Recombinant type IV collagen alpha2 chain, undigested (without protease) (UniProt P08572 184-1712); experiment: competitive C4-aa^1355 ECLIA on the collagen sample
T2 construct: Bought recombinant protein; also called non-digested type IV collagen; type IV collagen α2 chain
Experimental: (§1) During assay development, an optimal incubation buffer, time, temperature and concentrations of antibody and coating peptide were determined and the finalized competitive C4-aa¹³⁵⁵ ECLIA protocol was as follows: A MSD GOLD 96-well streptavidin pre-coated plate (Meso Scale Discovery, cat. no. L15SA-1) was incubated with 150 μl/well blocking buffer (10 mM phosphate-buffered saline (PBS) with bovine serum albumin (BSA) (5% w/v) and bronidox (0.36% v/v), 8 g/L NaCl, pH 7.4) for 60 minutes at 20° C. with shaking (300 rpm) in darkness. […] Finally, 150 μl/well of MSD GOLD Read Buffer (Meso Scale Discovery, cat. no. R92TG-2) was added and the plate was read immediately within 2 minutes in a Sector Imager 6000 (Meso Scale Discovery). SULFO-TAG enabled light emission when electricity was applied, and the light emission data was analyzed using the MSD Discovery Workbench 4.0 software. The analyte concentration was calculated using a 4-parametric curve fit model.
To confirm that the C4-aa¹³⁵⁵ antibody/assay recognized a protease generated type IV collagen neo-epitope, C4-aa¹³⁵⁵ was measured in non-digested, MMP-9 digested and GzB digested type IV collagen.

[2] = target: T1, Non-sense coating peptide …; experiment: ECLIA with the non-sense coating peptide on the streptavidin plate
Experimental: The target sequence was used as the selection peptide ([…] (SEQ ID No. 1)). The immunogenic peptide ([…]-GGC-KLH) was generated by covalently linking the selection peptide to Keyhole Limpet Hemocyanin (KLH) carrier protein with addition of glycine and cysteine residues in between to ensure right linking. A biotinylated peptide ([…]-K-biotin) was used as a coating peptide. The specificity of the antibody was tested by including an elongated peptide ([…] (SEQ ID No. 7)), a truncated peptide ([…] (SEQ ID No. 3)), a non-sense selection peptide ([…] (SEQ ID No. 18)) and a non-sense coating peptide ([…]-K-biotin). […] Antibody specificity was calculated as percentage of signal inhibition of two-fold diluted peptides.
During assay development, an optimal incubation buffer, time, temperature and concentrations of antibody and coating peptide were determined and the finalized competitive C4-aa¹³⁵⁵ ECLIA protocol was as follows: A MSD GOLD 96-well streptavidin pre-coated plate (Meso Scale Discovery, cat. no. L15SA-1) was incubated with 150 μl/well blocking buffer (10 mM phosphate-buffered saline (PBS) with bovine serum albumin (BSA) (5% w/v) and bronidox (0.36% v/v), 8 g/L NaCl, pH 7.4) for 60 minutes at 20° C. with shaking (300 rpm) in darkness. […]

[3] = target: B2; experiment: preliminary competitive ELISA, biotinylated coating peptide on streptavidin plates
Experimental: Female Balb/C mice of 6-7 weeks of age were immunized subcutaneously with 200 μl emulsified antigen containing 100 μg immunogenic peptide ([…]-GGC-KLH) with Stimune Immunogenic adjuvant (Thermo fisher, cat. no. 7925000) repeatedly every second week until stable titer levels were obtained. The mouse with the highest antibody titer rested for four weeks and was then boosted intraperitoneally with immunogenic peptide. After three days, splenocytes were isolated and fused with murine SP2/0 myeloma cells to produce hybridoma cells as previously described (17). The hybridoma cells were cultured in 96-well microtiter plates and limited dilution was used to secure monoclonal growth. Supernatants from the monoclonal antibody producing hybridoma cells were screened for reactivity against the selection peptide and human serum samples in a preliminary competitive ELISA using biotinylated coating peptide on streptavidin-coated microtiter plates (Roche, cat. no. 11940279). The clone with the best reactivity towards the selection peptide was purified using protein-G-columns according to the manufacturer's instructions (GE Healthcare Life Sciences, cat. no. 17-0404-01).

[4] = target: B1; experiment: competitive C4-aa^1355 ECLIA, peptide in solution against the biotinylated coating peptide
Experimental: as §1, with “darkness. The plate was coated with 25 μl/well biotinylated coating peptide dissolved in assay buffer (50 mM PBS with BSA (1% w/v), Tween-20 (0.1% w/v) and bronidox (0.36% v/v), 8 g/L NaCl, pH 7.4) to a concentration at 2 ng/ml and incubated for 60 minutes at 20° C. with shaking (750 rpm) in darkness.” for “darkness.”
Target sequence in this assay (VL, as listed by the source): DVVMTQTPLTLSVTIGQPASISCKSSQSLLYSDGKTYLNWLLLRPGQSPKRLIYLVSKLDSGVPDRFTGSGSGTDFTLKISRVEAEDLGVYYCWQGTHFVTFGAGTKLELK

[5] = target: B1; experiment: competitive C4-aa^1355 ECLIA (peptide in solution against the biotinylated coating peptide)
Experimental: The target sequence was used as the selection peptide ([…] (SEQ ID No. 1)). The immunogenic peptide ([…]-GGC-KLH) was generated by covalently linking the selection peptide to Keyhole Limpet Hemocyanin (KLH) carrier protein with addition of glycine and cysteine residues in between to ensure right linking. A biotinylated peptide ([…]-K-biotin) was used as a coating peptide. The specificity of the antibody was tested by including an elongated peptide ([…] (SEQ ID No. 7)), a truncated peptide ([…] (SEQ ID No. 3)), a non-sense selection peptide ([…] (SEQ ID No. 18)) and a non-sense coating peptide ([…]-K-biotin). To test for potential cross-reactivity to other ECM proteins with similar sequences, three peptides with one amino acid mismatch at either position one ([…] (SEQ ID No. 6)), three ([…] (SEQ ID No. 4)) or four ([…] (SEQ ID No. 5)) from the N-terminal were included in the specificity test. Antibody specificity was calculated as percentage of signal inhibition of two-fold diluted peptides.
During assay development, an optimal incubation buffer, time, temperature and concentrations of antibody and coating peptide were determined and the finalized competitive C4-aa¹³⁵⁵ ECLIA protocol was as follows: A MSD GOLD 96-well streptavidin pre-coated plate (Meso Scale Discovery, cat. no. L15SA-1) was incubated with 150 μl/well blocking buffer (10 mM phosphate-buffered saline (PBS) with bovine serum albumin (BSA) (5% w/v) and bronidox (0.36% v/v), 8 g/L NaCl, pH 7.4) for 60 minutes at 20° C. with shaking (300 rpm) in darkness. The plate was coated with 25 μl/well biotinylated coating peptide dissolved in assay buffer (50 mM PBS with BSA (1% w/v), Tween-20 (0.1% w/v) and bronidox (0.36% v/v), 8 g/L NaCl, pH 7.4) to a concentration at 2 ng/ml and incubated for 60 minutes at 20° C. with shaking (750 rpm) in darkness. Next, 25 μl/well selection peptide, assay controls or pre-diluted serum/plasma sample (1:2) were added followed by immediately addition of 25 μl/well of SULFO-TAG (MSD GOLD SULFO-TAG NHS-Ester Conjugation, Meso Scale Discovery, cat. no. R31AA-1) labelled monoclonal antibody diluted in assay buffer to a final concentration at 25 ng/ml and the plate incubated 20 hours at 4° C. with shaking (300 rpm) in darkness.

T2 sequence (P08572 184-1712): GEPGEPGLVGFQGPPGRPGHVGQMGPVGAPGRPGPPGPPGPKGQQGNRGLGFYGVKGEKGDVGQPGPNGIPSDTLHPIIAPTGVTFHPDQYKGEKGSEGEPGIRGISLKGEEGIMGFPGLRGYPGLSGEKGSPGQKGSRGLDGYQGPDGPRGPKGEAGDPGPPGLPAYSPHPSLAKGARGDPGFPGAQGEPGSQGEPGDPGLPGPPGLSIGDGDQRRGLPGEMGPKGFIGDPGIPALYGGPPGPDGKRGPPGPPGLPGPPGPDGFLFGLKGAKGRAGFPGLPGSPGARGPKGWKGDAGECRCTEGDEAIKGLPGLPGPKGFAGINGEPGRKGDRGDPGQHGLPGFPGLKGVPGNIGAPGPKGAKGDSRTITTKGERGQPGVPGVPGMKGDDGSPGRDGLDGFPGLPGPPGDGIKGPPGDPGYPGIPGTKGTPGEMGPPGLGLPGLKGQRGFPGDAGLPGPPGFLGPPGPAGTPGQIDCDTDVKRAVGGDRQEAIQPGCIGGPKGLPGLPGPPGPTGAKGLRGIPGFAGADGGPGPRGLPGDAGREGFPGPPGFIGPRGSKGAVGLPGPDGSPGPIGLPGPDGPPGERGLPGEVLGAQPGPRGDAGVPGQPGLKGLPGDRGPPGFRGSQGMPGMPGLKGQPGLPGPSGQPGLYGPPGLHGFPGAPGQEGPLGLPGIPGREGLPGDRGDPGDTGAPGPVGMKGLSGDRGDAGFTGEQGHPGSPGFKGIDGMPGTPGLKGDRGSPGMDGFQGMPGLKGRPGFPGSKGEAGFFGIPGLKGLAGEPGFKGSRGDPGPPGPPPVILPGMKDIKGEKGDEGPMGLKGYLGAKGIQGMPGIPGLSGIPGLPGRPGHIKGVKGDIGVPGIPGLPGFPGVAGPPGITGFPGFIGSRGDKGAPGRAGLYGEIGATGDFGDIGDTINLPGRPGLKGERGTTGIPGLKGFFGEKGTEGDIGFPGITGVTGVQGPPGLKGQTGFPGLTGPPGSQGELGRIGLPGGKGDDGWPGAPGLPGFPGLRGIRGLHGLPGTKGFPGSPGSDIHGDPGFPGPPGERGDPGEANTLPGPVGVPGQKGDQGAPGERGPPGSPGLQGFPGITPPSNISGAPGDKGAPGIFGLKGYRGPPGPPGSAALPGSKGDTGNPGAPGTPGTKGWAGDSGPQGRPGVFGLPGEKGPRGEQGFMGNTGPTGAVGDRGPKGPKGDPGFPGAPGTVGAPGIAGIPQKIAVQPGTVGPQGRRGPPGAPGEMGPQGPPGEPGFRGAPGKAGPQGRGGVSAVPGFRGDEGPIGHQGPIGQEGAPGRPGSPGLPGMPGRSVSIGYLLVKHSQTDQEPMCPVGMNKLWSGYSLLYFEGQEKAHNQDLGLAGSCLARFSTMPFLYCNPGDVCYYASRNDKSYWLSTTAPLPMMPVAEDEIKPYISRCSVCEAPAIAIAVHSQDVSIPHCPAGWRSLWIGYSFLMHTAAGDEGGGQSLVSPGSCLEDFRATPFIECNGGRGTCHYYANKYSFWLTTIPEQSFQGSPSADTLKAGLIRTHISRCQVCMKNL

Row | Binder | binding result [5] | other results
1 | B1 |  | binding result [1]: no binding; binding result [2]: no binding; binding result [3]: binds
2 | B2 |  | binding result [4]: binds
3 | MGQTGPTGAV (also called Deselection 1) [Deselection peptide 1 MGQTGPTGAV] | no binding (tested: 0-30 ng/ml) | 
4 | QGNTGPTGAV (also called Deselection 3) [Deselection peptide 3 QGNTGPTGAV] | no binding (tested: 0-30 ng/ml) | 
5 | FMGNTGPTGAV [Elongated peptide FMGNTGPTGAV] | no binding | 
6 | GNTGPTGAV [Truncated peptide GNTGPTGAV] | no binding | 
7 | LLARDFEKNY [Non-sense selection peptide LLARDFEKNY] | no binding | 
